From the DeepSol protein solubility set

Assay: soluble on expression in E. coli; label from the status in PepcDB or PDB records
In the case of “MKISLSTSLFSIEQKVEYFNLNYQSLSDFSVVAKLNYTFTWYGNDFSIGFAPKKGEKLYFDLFFTFKASPNHPFAAENFKPDSEAIDFYVSFSWRLEGKDEVSKKLFELSVFGRARAFQIDDYKINLFSYLVYVIR”, the “soluble on expression in E. coli” value is reported as “soluble”.
In the case of “YFKEKKIHPEAEMFDNRGFGVVAMMGLPLAGKDTYIKENFKNINVISLDDIREELNISSKRNSGKVAAIAISRAKQLLRRKESFIWNATNLRRENRQKLIRLCTAYGAKLKFIYLEVPYRELLSRNKMRSRYVPVEVINKMIRKMDMLEGEEIC”, the “soluble on expression in E. coli” value is reported as “not soluble”.
With “MFGLVDAVSFYARAEKVFDPSIRHKPVVVLTNNDGCICAVCPIARQLGVPKFVPYFKVKSFLAKHGVVVRSSNYELYADLSERMMNVIARYSDNHYVYSIDESFLHFKNFSCVDNWHEYGHVIRKAVWRETRLPVGVGFGATLTLAKAANHASKKLSGFDGVAVIDDKASRKEILSRMSLTEVWGIGSKLGKRLSILGLKNGWDLANQSPKAMRGQFGVVVERTVNELNGMPCLQWDEIGQDKQEIFSTRSFGQRVTDGHALKAALSSHASIVGAKVRRQGSLIKRLVIFASSSPHDDSYYKKSVIYEFPIATDNILKLVGAISYVFDNIYRQGVSFYRCGVGGVELENSQFQQQDMFSLSVNNPPLMKCYDQINHRYGRGAVEVAIAEKNEKWAMRRNFLSPRSTSNWSEIPKINCLEHHHHHH” the “soluble on expression in E. coli” value was “not soluble”.
With “MSLKAIWHGGFIYTMLEEGDRTEAVYVEDGVIKGTGSYERLKEKYGSPETEEISLNGAVMFPGFVDSHLHLIGHGEKQLQLDLSALTSKDSILQAAKERERQLPKNDWLIGEGWNENQFETPDYLTKHDLDRLFPDRPVLLKRICRHAIAVNSAALQAAGISRNTPDPDGGVIVKDANGEPTGLLFDKAQDLILKAVPPVSQHYVDEALTAAIKDCWTKGLTGGHSEDLSYYGDVSVPMKAYEKAAAGGKYPFRCHLLVHHEAVDRWEQLEKLSGPYVEFGAMKIFADGALGGRTALLKEPYQDDPSTNGVQVHDDETLGRLIRKAREKGMEVAVHAIGDLAFEKVLNAIEKHPPKNGRHDRLIHAQVLDNELIERAARMPIALDLQPHFVASDFPWVIDRLGKDRMKTAFAWKTLISKGILCAGGSDAPIEPVDPLLGIQSAVLRKSSHEQNGPSYNESECLPVYEAIKLYTEGSAGIIYKEKSRGKIAEGYDADFTVLSGDPFAIDPAQLHLLEIKKTVINGQIVYEKSEGHHHHHH” the “soluble on expression in E. coli” value was “soluble”.
With “MTNTAKILNFCRGNFAKQERNVADLDDGYARLSNMLLEAYSGADLTKRQFKVLLAILRKTYGWNKPMDRITDSQLSEITKLPVKRCNEAKLELVRMNIIKQQGGMFGPNKNISEWCIPQNEGKSPKTRDKTSLKLGDCYPSKQGDTKDTITKEKRKDYSSENSGESSDQPENDLSVVKPDAAIQSGSKWGTAEDLTAAEWMFDMVKTIAPSARKPNFAGWANDIRLMRERDGRNHRDMCVLFRWACQDNFWSGNVLSPAKLRDKWTQLEINRNKQQAGVTACKPKLDLTNTDWIYGVDL” the “soluble on expression in E. coli” value was “not soluble”.
With “MGCLGNSKTEDQRNEEKAQREANKKIEKQLQKDKQVYRATHRLLLLGAGESGKSTIVKQMRILHVNGFNGEGGEEDPQAARSNSDGEKATKVQDIKNNLKEAIETIVAAMSNLVPPVELANPENQFRVDYILSVMNVPDFDFPPEFYEHAKALWEDEGVRACYERSNEYQLIDCAQYFLDKIDVIKQDDYVPSDQDLLRCRVLTSGIFETKFQVDKVNFHMFDVGGQRDERRKWIQCFNDVTAIIFVVASSSYNMVIREDNQTNRLQEALNLFKSIWNNRWLRTISVILFLNKQDLLAEKVLAGKSKIEDYFPEFARYTTPEDATPEPGEDPRVTRAKYFIRDEFLRISTASGDGRHYCYPHFTCAVDTENIRRVFNDCRDIIQRMHLRQYELLGGHHHHHH” the “soluble on expression in E. coli” value was “soluble”.
In the case of “MGSDKIHHHHHHMTIYSWNALYLGNAGDIDSYEGDLYAEGASNILGSYGSPGDPLYDHIVDVVVNDADDDTDINSDNYDFWSPDAMTVDGVAHTLDSGVVYNATLTYADGSTANITAVVIQTTDGDLYLAPEMTANDDWVAMEAKAIVSVSLDSVSVDTTYIAANRQQTNFICFAAGTRIATPKGARPVETLAVGDLVQTLDHGPQPIRWIGTRRVGLATQLLSHGVAPVVIPAHSFAPSIPTHPLLLSQQHRVLLRSRIARRMYGSDEILIAARRLTGLHGIALRPATGPVRYIHFALDRHEIVFANGLPAETLLLGAEVERVLGTDVFTQIEQSQNRGAIALAMRPARPIVEGRRARSFVERLRNRACRHALANPIKVPQNRVTGLISLVSPPG”, the “soluble on expression in E. coli” value is reported as “not soluble”.
With “MDMHSGTFNPQDFAWQGLTLTPAAAIHIRELVAKQPGMVGVRLGVKQTGCAGFGYVLDSVSEPDKDDLLFEHDGAKLFVPLQAMPFIDGTEVDFVREGLNQIFKFHNPKAQNECGCGESFGV” the “soluble on expression in E. coli” value was “not soluble”.
In the case of “MGHHHHHHSHMLENRDYTLIIDKSGSMATPDQKGGRNRWVTAQESTLALASKCEQFDPDGITLYVFSGRFKRYENVTSAKVNQIFQENDPSGTTDLAAVLKHATDDYFQRKGAGKTKPNGETILVVTDGEPDDRKAVMRVIIEASRRMDKDEELAISFIQVGSDAQATRFLKVLDDELQGAGAKFDICDTVTMEDMEDLSLSEVLLNAITD”, the “soluble on expression in E. coli” value is reported as “soluble”.
With “MKLKYSGLTASGNTHPKFTRGDIYRDQYGGMVTIKGVAERRITYRREGYEYDCVMPVYQFRRDFTLVQAAPRSKPTSREKARANIQEIKKMLNVFRGKK” the “soluble on expression in E. coli” value was “not soluble”.
With “MSQLDLLNIVHRPRRLRRTAALRNLVQENTLTVNDLVFPLFVMPGTNAVEEVSSMPGSFRFTIDRAVEECKELYDLGIQGIDLFGIPEQKTEDGSEAYNDNGILQQAIRAIKKAVPELCIMTDVALDPFTPFGHDGLVKDGIILNDETVEVLQKMAVSHAEAGADFVSPSDMMDGRIGAIREALDETDHSDVGILSYAAKYASSFYGPFRDALHSAPQFGDKSTYQMNPANTEEAMKEVELDIVEGADIVMVKPGLAYLDIVWRTKERFDVPVAIYHVSGEYAMVKAAAAKGWIDEDRVMMESLLCMKRAGADIIFTYYAKEAAKKLR” the “soluble on expression in E. coli” value was “soluble”.
With “MGSDKIHHHHHHVSVDDLIDTTSLELLVAPAPLADFLRQSSAMHRHLCPRQVLGARMGMYAGELLGLTLPQKNKRLYTFVETDGCFADGVSVTTGCWLGRRTMRLMDEGKVAATFVDTQTGQAFRIAPRPNVRDLARQYAPNARSRWHAYLIAYQLMPLTDLLIAQPITLTVDLKAIISRNGLRTTCDHCGEEIINAREVIRDGQTLCRTCGGEGYYTITG” the “soluble on expression in E. coli” value was “not soluble”.
For “MRQIQSIRLIDVLELAFGVGYKEETTSQFSSDQPSQVVLYRGEANTVRFAYTNQMSLMKDIRIALDGSDKSLTAQIVPGMGHVYEGFQTSARGIFTMSGVPESTVPVANPNVQTKYIRYFKVIDDMHNTMYKGTVFLVQPQAWKYTMKSVDQLPVDDLNHIGVAGIERMTTLIKNAGALLTTGGSGAFPDNIKVSINPKGRQATITYGDGSTDIIPPAVLWKKGSVKEPTEADQSVGTPTPGIPGKFKRDQSLNEHEAMVNVEPLSHVVKDNIKVIDEKSTGRFEPFRPNEDEKEKPASDVKVRPAEVGSWLEPATALPSVEMSAEDRLKS”, the “soluble on expression in E. coli” value was “not soluble”.
For “AHHHHHHGSSAKLERIVEEISVAFVGHEDVVRKVLSAALANGNVLFEDNPGLGKTLLAKAFAKVLGLEYRRVQFTPDLLPSDILGTKVWRPEKGTFEIVKGPIFTNVLLADEINRAPPKTQSALLEAMEERQVTIEGETFVLERPFFVIATQNPLEFEGTYPLPEAQLDRFLVRMSIGYPKNESEEVEILKARLRWGKDDPTTDLKPAITKSEFLKMQEDVERNVKIHEDILKYIVRIVRTIREDERVEAGPSPRGGLALMKLAKANAYVEGRDYVIPDDVKEFAIEALAHRIFLKPEYSLEKGIEIEIVREALESVPVPKDLKY”, the “soluble on expression in E. coli” value was “not soluble”.
With “MGSDKIHHHHHHMFDAIGWDEIKNFEYMKQSIIAKIEHACASHEIPLHTHPKGQLILALHGYVTCEVSAKMWMVPTHSAIWIPAYKVHSNRASDNAKLCHLFIDSNMDGMPQNTCTLAISPLVKELMCELASRDQHYRSNSKTARLAQVLHDQLIDMPIQHLDFVLSKNMVIQAMSQQLISQPHDRKTLPQWAEQFALTERTLARLIKKETGMTFGKWRTQLHIITSLQALSDKQSVQQVSELLGYESVSAFITMFKKVMKTSPMKYMNELNAY” the “soluble on expression in E. coli” value was “not soluble”.
In the case of “MGSDKIHHHHHHMPKIWTERIFDDPEIYVLRIDDDRIRYFEAVWEIPEGISYNAYLVKLNGANVLIDGWKGNYAKEFIDALSKIVDPKEITHIIVNHTEPDHSGSLPATLKTIGHDVEIIASNFGKRLLEGFYGIKDVTVVKDGEEREIGGKKFKFVMTPWLHWPDTMVTYLDGILFSCDVGGGYLLPEILDDSNESVVERYLPHVTKYIVTVIGHYKNYILEGAEKLSSLKIKALLPGHGLIWKKDPQRLLNHYVSVAKGDPKKGKVTVIYDSMYGFVENVMKKAIDSLKEKGFTPVVYKFSDEERPAISEILKDIPDSEALIFGVSTYEAEIHPLMRFTLLEIIDKANYEKPVLVFGVHGWAPSAERTAGELLKETKFRILSFTEIKGSNMDERKIEEAISLLKKELE”, the “soluble on expression in E. coli” value is reported as “soluble”.
In the case of “MGSDKIHHHHHHMDYPDKMTPAQRAAAKAKGEPADRVACNPNIANGMARIAGYKISQFNDDPEALADAIIKTYRRFGADGARIFTDLFLVSEAMGAKVRKPEDNTADLEEPAINDMSEFDKLKVIDPYTQGRIPVHLRAIEIVRDEIASEVGVTASVVGPFTNAFFLIGVEKMTKMLLKDPESVHKLCEISLQSCIALTDAVLEKGVGVTISEPLSSCTVVSPKHFREFSAPYLKRLIDHIKARTGKLVIHICGITDPIWDDLVEMGVDVLSIDNVADMEKCAETVGDKMVIAGNVDPSAIMYAGSREDVRKATIKCAKQGLKAKKGFMIMSGCSLPVEVPIENIDAMMDTAREMGWPVTEEKLDYLLSFDKYKD”, the “soluble on expression in E. coli” value is reported as “not soluble”.
With “MPLSSPDRLAIAVDLGTTTLAASLLDMATGERLAVAGSLNPQREFGADVIARLDAACRSKEARHRMAELVRGAIGRLAGELLESVGRSPEHLVTIAVAGNPAMEHLLLDLPVDALAFPPYRPLFTAGKTVPAVGLGWDLPAEVFLFPLPGGFVGGDTVAFLHGVPGPRSPVPGPRLYLDMGTNGEIALAADGKLLATSAAAGPAFEGGNLSCGMAALPGAISGVTFDGERLLVSTVEGKPATGICGSGVLSAIALLLDQGAIDSTGRLLPPEEIPSSIGNRLTTMGDERAFVLHRDATRTVWLSQEDIRQVQLAKGAIRAGMEVLFDRAGIESGAVGSVVLTGSFGAVLDPHSLKSLGVFTENMVQTTSFVREGALRGVEHALLTSGGLAAVDHLAGTIRVIPLSGTPAFEKHFLQHINFPHTILEHHHHHH” the “soluble on expression in E. coli” value was “soluble”.
With “QDDSRYTKFLTQHHDAKPKGRDDRYCERMMKRRSLTSPCKDVNTFIHGNKSNIKAICGANGSPYRENLRMSKSPFQVTTCKHTGGSPRPPCQYRASAGFRHVVIACENGLPVHFDESFFSL” the “soluble on expression in E. coli” value was “soluble”.
For “MHHHHHHGRIGIPRERLTNETRVAATPKTVEQLLKLGFTVAVESGAGQLASFDDKAFVQAGAEIVEGNSVWQSEIILKVNAPLDDEIALLNPGTTLVSFIWPAQNPELMQKLAERNVTVMAMDSVPRISRAQSLDALSSMANIAGYRAIVEAAHEFGRFFTGQITAAGKVPPAKVMVIGAGVAGLAAIGAANSLGAIVRAFDTRPEVKEQVQSMGAEFLELDFKEEAGSGDGYAKVMSDAFIKAEMELFAAQAKEVDIIVTTALIPGKPAPKLITREMVDSMKAGSVIVDLAAQNGGNCEYTVPGEIFTTENGVKVIGYTDLPGRLPTQSSQLYGTNLVNLLKLLCKEKDGNITVDFDDVVIRGVTVIRAGEITWPAPPIQVSAQPQAAQKAAPEVKTEEK”, the “soluble on expression in E. coli” value was “soluble”.
In the case of “MNLNQLTGADLMAARTHIGLSISAVAKLTGINRNTLSQFEQEKASLSGSEKKRLAGCYEERGYHFDEPQTTDETVLATRYDDARERLVDAAYDVNMNGLGEAVLALADASHDLLSMLARPMDVAQEEVELDAVELPESYLEMHNVLQRHFLADKAGQMQGKVGFFKEDADERSAKLIAYMAQQYLTLLHAEMPEVVSLERDSLDDDSDNARVLDALANWTFYDALKEMTV”, the “soluble on expression in E. coli” value is reported as “not soluble”.
